# Assays:
# ZYG11B = ZYG11B (Homo sapiens, UniProt Q9C0D3 445-728); assay: ITC
# ZER1 (ZYG11BL) = ZER1 (ZYG11BL) (Homo sapiens, UniProt Q7Z7L7 520-766); assay: ITC
# Sequence of ZER1 (ZYG11BL) (Q7Z7L7 520-766): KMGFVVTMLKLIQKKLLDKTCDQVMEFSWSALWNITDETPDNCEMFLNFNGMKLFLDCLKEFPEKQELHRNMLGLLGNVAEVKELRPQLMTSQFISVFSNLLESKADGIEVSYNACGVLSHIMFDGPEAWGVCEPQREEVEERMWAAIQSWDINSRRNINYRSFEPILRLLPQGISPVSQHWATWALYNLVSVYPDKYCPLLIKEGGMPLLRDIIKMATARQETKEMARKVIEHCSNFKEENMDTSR
# Sequence of ZYG11B (Q9C0D3 445-728): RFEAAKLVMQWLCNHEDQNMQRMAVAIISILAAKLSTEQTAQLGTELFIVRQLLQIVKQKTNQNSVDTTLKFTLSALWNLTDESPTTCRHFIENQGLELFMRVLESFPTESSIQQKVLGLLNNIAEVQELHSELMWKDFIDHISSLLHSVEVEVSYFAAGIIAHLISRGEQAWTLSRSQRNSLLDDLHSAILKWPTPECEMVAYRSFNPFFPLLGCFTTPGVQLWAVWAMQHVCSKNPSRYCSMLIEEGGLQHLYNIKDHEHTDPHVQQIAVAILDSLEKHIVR
binder,measurement,setting,value
TCACCCGGTTGGGGCACACGTCTTGTTGATGGCTGC (ssDNA) [Apt#Z6],Kd,ZYG11B,4.69 ± 2.19 µM
same,binding result,ZER1 (ZYG11BL),no binding

# — paper PMC11906892
